According to patent US20180250392A1 (published 2018):
Positions count from the first letter of the chain named. Each block holds one binder with its values, some of them ahead of it.

Columns and labels:
[1] = biological target: T1, human VEGFR2 (soluble hVEGFR2) (human, UniProt P35968 20-764); assay: Biacore, human VEGFR2
T1 construct: also called KDR

rat VEGFR2 = rat VEGFR2 (rat, UniProt O08775 20-760, limits assumed); assay: Biacore, rat VEGFR2
[2] = biological target: T2, murine VEGFR2 (soluble mVEGFR2) (murine, UniProt P35918 20-762); assay: Biacore, murine VEGFR2
T2 construct: also called mouse VEGFR2
T2 sequence (P35918 20-762 limits assumed): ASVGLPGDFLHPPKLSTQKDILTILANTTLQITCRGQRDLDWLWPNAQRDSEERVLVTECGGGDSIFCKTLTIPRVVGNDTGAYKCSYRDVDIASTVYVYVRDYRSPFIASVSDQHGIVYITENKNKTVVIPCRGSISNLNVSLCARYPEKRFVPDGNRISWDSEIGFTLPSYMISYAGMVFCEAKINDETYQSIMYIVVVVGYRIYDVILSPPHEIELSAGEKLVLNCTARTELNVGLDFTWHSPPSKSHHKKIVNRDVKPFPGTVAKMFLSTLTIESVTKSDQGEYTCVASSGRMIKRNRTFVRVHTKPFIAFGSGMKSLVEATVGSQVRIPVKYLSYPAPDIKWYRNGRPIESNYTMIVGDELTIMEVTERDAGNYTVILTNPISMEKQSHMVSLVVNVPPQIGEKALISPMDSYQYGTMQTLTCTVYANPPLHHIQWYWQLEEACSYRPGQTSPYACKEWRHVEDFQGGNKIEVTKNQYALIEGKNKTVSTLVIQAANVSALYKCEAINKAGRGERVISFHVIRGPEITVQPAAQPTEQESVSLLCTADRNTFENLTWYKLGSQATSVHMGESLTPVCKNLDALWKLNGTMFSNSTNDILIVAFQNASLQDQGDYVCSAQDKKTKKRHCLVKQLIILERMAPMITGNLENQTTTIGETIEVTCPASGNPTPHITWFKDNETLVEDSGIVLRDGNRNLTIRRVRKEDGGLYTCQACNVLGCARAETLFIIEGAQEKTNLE

T1 sequence (P35968 20-764 limits assumed): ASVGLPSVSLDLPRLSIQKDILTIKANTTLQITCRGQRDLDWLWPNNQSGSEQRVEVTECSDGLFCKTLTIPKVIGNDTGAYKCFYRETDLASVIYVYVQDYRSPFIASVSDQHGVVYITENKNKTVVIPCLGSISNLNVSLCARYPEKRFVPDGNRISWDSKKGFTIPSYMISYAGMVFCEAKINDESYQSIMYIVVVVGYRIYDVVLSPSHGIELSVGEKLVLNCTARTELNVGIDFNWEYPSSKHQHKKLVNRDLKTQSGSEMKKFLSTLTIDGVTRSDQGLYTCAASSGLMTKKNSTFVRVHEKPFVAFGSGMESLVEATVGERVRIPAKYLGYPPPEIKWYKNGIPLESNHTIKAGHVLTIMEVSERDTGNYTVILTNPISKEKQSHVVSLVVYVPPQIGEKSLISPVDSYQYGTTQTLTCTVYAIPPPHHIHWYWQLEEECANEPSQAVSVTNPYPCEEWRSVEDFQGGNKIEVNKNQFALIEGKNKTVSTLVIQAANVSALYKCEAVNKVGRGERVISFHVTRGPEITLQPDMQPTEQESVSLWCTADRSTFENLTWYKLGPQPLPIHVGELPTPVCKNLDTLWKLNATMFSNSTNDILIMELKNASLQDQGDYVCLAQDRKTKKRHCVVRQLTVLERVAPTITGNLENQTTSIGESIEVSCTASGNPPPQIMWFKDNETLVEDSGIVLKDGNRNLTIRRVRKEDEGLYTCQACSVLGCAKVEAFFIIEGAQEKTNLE
Sequence of rat VEGFR2 (O08775 20-760 limits assumed): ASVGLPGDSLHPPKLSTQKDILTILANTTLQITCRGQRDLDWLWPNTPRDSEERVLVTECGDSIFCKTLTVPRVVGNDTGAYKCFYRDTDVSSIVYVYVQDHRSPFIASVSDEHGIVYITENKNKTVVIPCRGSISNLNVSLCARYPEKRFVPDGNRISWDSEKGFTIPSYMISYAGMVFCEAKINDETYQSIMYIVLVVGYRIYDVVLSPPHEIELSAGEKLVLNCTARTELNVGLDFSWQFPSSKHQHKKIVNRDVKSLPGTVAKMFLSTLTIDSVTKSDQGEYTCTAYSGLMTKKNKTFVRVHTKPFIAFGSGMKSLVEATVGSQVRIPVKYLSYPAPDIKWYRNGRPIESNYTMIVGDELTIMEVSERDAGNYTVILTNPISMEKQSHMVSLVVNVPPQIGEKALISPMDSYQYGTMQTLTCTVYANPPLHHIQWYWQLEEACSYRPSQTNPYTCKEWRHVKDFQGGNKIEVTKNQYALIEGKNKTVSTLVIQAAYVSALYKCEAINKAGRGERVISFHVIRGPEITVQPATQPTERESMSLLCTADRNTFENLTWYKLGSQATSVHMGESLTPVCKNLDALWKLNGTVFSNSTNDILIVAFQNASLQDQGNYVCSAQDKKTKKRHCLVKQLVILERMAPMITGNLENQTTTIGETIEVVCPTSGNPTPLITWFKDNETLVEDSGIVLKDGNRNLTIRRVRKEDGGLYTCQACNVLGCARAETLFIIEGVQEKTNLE

koff [1]: 0.000659 s⁻¹
kon [1]: 86200 M⁻¹ s⁻¹
koff (rat VEGFR2): 0.00143 s⁻¹
kon (rat VEGFR2): 33200 M⁻¹ s⁻¹
koff [2]: 0.00181 s⁻¹
kon [2]: 22900 M⁻¹ s⁻¹
B1: Mab 149 (B1C4_E5) (antibody, V domains shown)
VH: EVQLLESGGGLVQPGGSLRLSCAASGFTFSWYVMGWVRQAPGKGLEWVSSIYPSGGATNYADSVKGRFTISRDNSKNTLYLQMNSLRAEDTAVYYCARGNYLDYWGQGTLVTVSS
VL: DIQMTQSPGTLSLSPGEGATLSCRASQSVSSNYFGWYQQKPGQAPRLLIYGASSRATGIPDRFSGSGSGTDFTLTISRLEPEDSAVYYCQQFDSSPLSFGGGTKVEIKR

koff [1]: 0.000282 s⁻¹
kon [1]: 113000 M⁻¹ s⁻¹
koff (rat VEGFR2): 0.000899 s⁻¹
kon (rat VEGFR2): 64500 M⁻¹ s⁻¹
koff [2]: 0.00128 s⁻¹
kon [2]: 43800 M⁻¹ s⁻¹
B2: Mab 147 (B1C4_A7) (antibody, V domains shown)
VH: B1 VH with S54Q, N59S, L102F
VL: B1 VL with S95L, S98T
